Target: FcγRIII (CD16) (human) (UniProt P08637)
Test: cell-based or functional assay

Chain of FcγRIII (CD16) (human) (P08637 17-254): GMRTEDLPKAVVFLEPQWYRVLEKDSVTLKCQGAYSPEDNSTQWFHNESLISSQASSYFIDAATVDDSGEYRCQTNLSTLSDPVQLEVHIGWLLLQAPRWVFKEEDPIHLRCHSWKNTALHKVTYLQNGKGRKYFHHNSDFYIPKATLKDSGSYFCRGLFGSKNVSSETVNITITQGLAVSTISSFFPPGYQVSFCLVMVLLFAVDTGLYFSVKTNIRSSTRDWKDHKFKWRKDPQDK

Substance: anti-CD16 mAb 3G8 (antibody)
- IFN-γ secretion from PBMC, immobilized anti-CD16 mAb (10 µg/ml) + IL-2: 9.85 ng/mL
- TNF-α secretion from PBMC, immobilized anti-CD16 mAb (10 µg/ml) + IL-2: 3.32 ng/mL
- proliferative response of PBMC ([3H]thymidine), IL-2 and immobilized anti-CD16 mAb: 15500 CPM
- proliferative response of PBMC ([3H]thymidine), immobilized anti-CD16 mAb alone, no IL-2: 592 CPM

Substance: heat aggregated IgG (AIG)
- IFN-γ secretion from PBMC, aggregated IgG (40 µg/ml) + IL-2: 13 ng/mL
- TNF-α secretion from PBMC, aggregated IgG (40 µg/ml) + IL-2: 2.46 ng/mL
- fold induction of PBMC proliferation over IL-2, 125 µg/mL of AIG: 16 fold
- proliferative response of PBMC, 125 µg/mL of AIG and IL-2: 17400 CPM
